Measured values published in patent publication US20180155451A1 (published 2018).

T1: FcγRIIb extracellular domain with C-terminal His tag (human, UniProt P31994 43-217)
T1 construct: extracellular domain; also called 2b; FcgRIIb
T1 sequence (looked up): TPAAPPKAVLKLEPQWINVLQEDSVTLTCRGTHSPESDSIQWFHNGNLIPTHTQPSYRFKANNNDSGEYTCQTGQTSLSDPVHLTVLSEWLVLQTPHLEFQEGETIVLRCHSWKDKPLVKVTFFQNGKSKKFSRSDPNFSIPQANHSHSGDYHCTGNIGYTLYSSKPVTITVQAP


Experiments:
[1] = target: T2, FcγRIIIa extracellular domain with C-terminal His tag (human, UniProt P08637 17-208); test: SPR; He/Con_3a over He/Con_2b (FcγRIIb)
T2 construct: extracellular domain; also called 3a; FcgRIIIa
T2 sequence (P08637 17-208): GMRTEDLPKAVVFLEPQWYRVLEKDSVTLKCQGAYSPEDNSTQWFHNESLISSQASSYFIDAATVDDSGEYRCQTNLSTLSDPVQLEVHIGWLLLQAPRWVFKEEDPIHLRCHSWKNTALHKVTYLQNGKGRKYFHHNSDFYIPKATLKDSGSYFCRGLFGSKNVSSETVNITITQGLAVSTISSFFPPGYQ

[2] = target: T2, FcγRIIIa extracellular domain with …; test: SPR, relative to GpH7-A5/GpH7-B3/GpL16-k0
[3] = target: T1, FcγRIIb extracellular domain with …; test: SPR, relative to GpH7-A5/GpH7-B3/GpL16-k0

He_3a/2b (IIIa/IIb) [1]	He/Con_3a [2]	He/Con_2b [3]	Binder
1.93 ratio	59.7 control=100	31 control=100	GpH7-A5/GpH7-B3 variant G236_07I/GpL16-k0 (antibody, human IgG1, kappa, He Ab: alteration in one H chain only; also called He Ab) heavy 1: not shown heavy 2: not shown light: DIVMTQSPLSLPVTPGEPASISCQASESLVHSNRNTYLHWYLQKPGQSPQLLIYKVSNRFSGVPDRFSGSGSGTDFTLKISRVEAEDVGVYYCSQNTHVPPTFGQGTKVEIERTVAAPSVFIFPPSDEQLKSGTASVVCLLNNFYPREAKVQWKVDNALQSGNSQESVTEQDSKDSTYSLSSTLTLSKADYEKHKVYACEVTHQGLSSPVTKSFNRGEC
1.35 ratio	130 control=100	96.3 control=100	GpH7-A5/GpH7-B3 variant L234_15Y/GpL16-k0 (antibody, human IgG1, kappa, He Ab: alteration in one H chain only; also called He Ab) heavy 1: not shown heavy 2: not shown light: DIVMTQSPLSLPVTPGEPASISCQASESLVHSNRNTYLHWYLQKPGQSPQLLIYKVSNRFSGVPDRFSGSGSGTDFTLKISRVEAEDVGVYYCSQNTHVPPTFGQGTKVEIERTVAAPSVFIFPPSDEQLKSGTASVVCLLNNFYPREAKVQWKVDNALQSGNSQESVTEQDSKDSTYSLSSTLTLSKADYEKHKVYACEVTHQGLSSPVTKSFNRGEC
1.66 ratio	58.8 control=100	35.4 control=100	GpH7-A5/GpH7-B3 variant L235_01G/GpL16-k0 (antibody, human IgG1, kappa, He Ab: alteration in one H chain only; also called He Ab) heavy 1: not shown heavy 2: not shown light: DIVMTQSPLSLPVTPGEPASISCQASESLVHSNRNTYLHWYLQKPGQSPQLLIYKVSNRFSGVPDRFSGSGSGTDFTLKISRVEAEDVGVYYCSQNTHVPPTFGQGTKVEIERTVAAPSVFIFPPSDEQLKSGTASVVCLLNNFYPREAKVQWKVDNALQSGNSQESVTEQDSKDSTYSLSSTLTLSKADYEKHKVYACEVTHQGLSSPVTKSFNRGEC
1.27 ratio	103 control=100	80.9 control=100	GpH7-A5/GpH7-B3 variant L234_07I/GpL16-k0 (antibody, human IgG1, kappa, He Ab: alteration in one H chain only; also called He Ab) heavy 1: not shown heavy 2: not shown light: DIVMTQSPLSLPVTPGEPASISCQASESLVHSNRNTYLHWYLQKPGQSPQLLIYKVSNRFSGVPDRFSGSGSGTDFTLKISRVEAEDVGVYYCSQNTHVPPTFGQGTKVEIERTVAAPSVFIFPPSDEQLKSGTASVVCLLNNFYPREAKVQWKVDNALQSGNSQESVTEQDSKDSTYSLSSTLTLSKADYEKHKVYACEVTHQGLSSPVTKSFNRGEC
1.88 ratio	30.5 control=100	16.2 control=100	GpH7-A5/GpH7-B3 variant L234_11K/GpL16-k0 (antibody, human IgG1, kappa, He Ab: alteration in one H chain only; also called He Ab) heavy 1: not shown heavy 2: not shown light: DIVMTQSPLSLPVTPGEPASISCQASESLVHSNRNTYLHWYLQKPGQSPQLLIYKVSNRFSGVPDRFSGSGSGTDFTLKISRVEAEDVGVYYCSQNTHVPPTFGQGTKVEIERTVAAPSVFIFPPSDEQLKSGTASVVCLLNNFYPREAKVQWKVDNALQSGNSQESVTEQDSKDSTYSLSSTLTLSKADYEKHKVYACEVTHQGLSSPVTKSFNRGEC
1.21 ratio	88.1 control=100	72.9 control=100	GpH7-A5/GpH7-B3 variant L234_05P/GpL16-k0 (antibody, human IgG1, kappa, He Ab: alteration in one H chain only; also called He Ab) heavy 1: not shown heavy 2: not shown light: DIVMTQSPLSLPVTPGEPASISCQASESLVHSNRNTYLHWYLQKPGQSPQLLIYKVSNRFSGVPDRFSGSGSGTDFTLKISRVEAEDVGVYYCSQNTHVPPTFGQGTKVEIERTVAAPSVFIFPPSDEQLKSGTASVVCLLNNFYPREAKVQWKVDNALQSGNSQESVTEQDSKDSTYSLSSTLTLSKADYEKHKVYACEVTHQGLSSPVTKSFNRGEC
2.33 ratio	135 control=100	58.2 control=100	GpH7-A5/GpH7-B3 variant G236_20W/GpL16-k0 (antibody, human IgG1, kappa, He Ab: alteration in one H chain only; also called He Ab) heavy 1: not shown heavy 2: not shown light: DIVMTQSPLSLPVTPGEPASISCQASESLVHSNRNTYLHWYLQKPGQSPQLLIYKVSNRFSGVPDRFSGSGSGTDFTLKISRVEAEDVGVYYCSQNTHVPPTFGQGTKVEIERTVAAPSVFIFPPSDEQLKSGTASVVCLLNNFYPREAKVQWKVDNALQSGNSQESVTEQDSKDSTYSLSSTLTLSKADYEKHKVYACEVTHQGLSSPVTKSFNRGEC
1.34 ratio	79.5 control=100	59.4 control=100	GpH7-A5/GpH7-B3 variant L234_16H/GpL16-k0 (antibody, human IgG1, kappa, He Ab: alteration in one H chain only; also called He Ab) heavy 1: not shown heavy 2: not shown light: DIVMTQSPLSLPVTPGEPASISCQASESLVHSNRNTYLHWYLQKPGQSPQLLIYKVSNRFSGVPDRFSGSGSGTDFTLKISRVEAEDVGVYYCSQNTHVPPTFGQGTKVEIERTVAAPSVFIFPPSDEQLKSGTASVVCLLNNFYPREAKVQWKVDNALQSGNSQESVTEQDSKDSTYSLSSTLTLSKADYEKHKVYACEVTHQGLSSPVTKSFNRGEC
3.06 ratio	121 control=100	39.5 control=100	GpH7-A5/GpH7-B3 variant G236_15Y/GpL16-k0 (antibody, human IgG1, kappa, He Ab: alteration in one H chain only; also called He Ab) heavy 1: not shown heavy 2: not shown light: DIVMTQSPLSLPVTPGEPASISCQASESLVHSNRNTYLHWYLQKPGQSPQLLIYKVSNRFSGVPDRFSGSGSGTDFTLKISRVEAEDVGVYYCSQNTHVPPTFGQGTKVEIERTVAAPSVFIFPPSDEQLKSGTASVVCLLNNFYPREAKVQWKVDNALQSGNSQESVTEQDSKDSTYSLSSTLTLSKADYEKHKVYACEVTHQGLSSPVTKSFNRGEC
1.21 ratio	32.5 control=100	26.8 control=100	GpH7-A5/GpH7-B3 variant G236_08L/GpL16-k0 (antibody, human IgG1, kappa, He Ab: alteration in one H chain only; also called He Ab) heavy 1: not shown heavy 2: not shown light: DIVMTQSPLSLPVTPGEPASISCQASESLVHSNRNTYLHWYLQKPGQSPQLLIYKVSNRFSGVPDRFSGSGSGTDFTLKISRVEAEDVGVYYCSQNTHVPPTFGQGTKVEIERTVAAPSVFIFPPSDEQLKSGTASVVCLLNNFYPREAKVQWKVDNALQSGNSQESVTEQDSKDSTYSLSSTLTLSKADYEKHKVYACEVTHQGLSSPVTKSFNRGEC
1.54 ratio	43.1 control=100	27.9 control=100	GpH7-A5/GpH7-B3 variant G236_16H/GpL16-k0 (antibody, human IgG1, kappa, He Ab: alteration in one H chain only; also called He Ab) heavy 1: not shown heavy 2: not shown light: DIVMTQSPLSLPVTPGEPASISCQASESLVHSNRNTYLHWYLQKPGQSPQLLIYKVSNRFSGVPDRFSGSGSGTDFTLKISRVEAEDVGVYYCSQNTHVPPTFGQGTKVEIERTVAAPSVFIFPPSDEQLKSGTASVVCLLNNFYPREAKVQWKVDNALQSGNSQESVTEQDSKDSTYSLSSTLTLSKADYEKHKVYACEVTHQGLSSPVTKSFNRGEC
1.22 ratio	80.3 control=100	65.7 control=100	GpH7-A5/GpH7-B3 variant H268_06M/GpL16-k0 (antibody, human IgG1, kappa, He Ab: alteration in one H chain only; also called He Ab) heavy 1: not shown heavy 2: not shown light: DIVMTQSPLSLPVTPGEPASISCQASESLVHSNRNTYLHWYLQKPGQSPQLLIYKVSNRFSGVPDRFSGSGSGTDFTLKISRVEAEDVGVYYCSQNTHVPPTFGQGTKVEIERTVAAPSVFIFPPSDEQLKSGTASVVCLLNNFYPREAKVQWKVDNALQSGNSQESVTEQDSKDSTYSLSSTLTLSKADYEKHKVYACEVTHQGLSSPVTKSFNRGEC
1.3 ratio	71.1 control=100	54.7 control=100	GpH7-A5/GpH7-B3 variant L235_05P/GpL16-k0 (antibody, human IgG1, kappa, He Ab: alteration in one H chain only; also called He Ab) heavy 1: not shown heavy 2: not shown light: DIVMTQSPLSLPVTPGEPASISCQASESLVHSNRNTYLHWYLQKPGQSPQLLIYKVSNRFSGVPDRFSGSGSGTDFTLKISRVEAEDVGVYYCSQNTHVPPTFGQGTKVEIERTVAAPSVFIFPPSDEQLKSGTASVVCLLNNFYPREAKVQWKVDNALQSGNSQESVTEQDSKDSTYSLSSTLTLSKADYEKHKVYACEVTHQGLSSPVTKSFNRGEC
1.25 ratio	91.4 control=100	73.1 control=100	GpH7-A5/GpH7-B3 variant L234_03V/GpL16-k0 (antibody, human IgG1, kappa, He Ab: alteration in one H chain only; also called He Ab) heavy 1: not shown heavy 2: not shown light: DIVMTQSPLSLPVTPGEPASISCQASESLVHSNRNTYLHWYLQKPGQSPQLLIYKVSNRFSGVPDRFSGSGSGTDFTLKISRVEAEDVGVYYCSQNTHVPPTFGQGTKVEIERTVAAPSVFIFPPSDEQLKSGTASVVCLLNNFYPREAKVQWKVDNALQSGNSQESVTEQDSKDSTYSLSSTLTLSKADYEKHKVYACEVTHQGLSSPVTKSFNRGEC
1.48 ratio	98 control=100	66.4 control=100	GpH7-A5/GpH7-B3 variant L235_03V/GpL16-k0 (antibody, human IgG1, kappa, He Ab: alteration in one H chain only; also called He Ab) heavy 1: not shown heavy 2: not shown light: DIVMTQSPLSLPVTPGEPASISCQASESLVHSNRNTYLHWYLQKPGQSPQLLIYKVSNRFSGVPDRFSGSGSGTDFTLKISRVEAEDVGVYYCSQNTHVPPTFGQGTKVEIERTVAAPSVFIFPPSDEQLKSGTASVVCLLNNFYPREAKVQWKVDNALQSGNSQESVTEQDSKDSTYSLSSTLTLSKADYEKHKVYACEVTHQGLSSPVTKSFNRGEC
6.06 ratio	38.1 control=100	6.3 control=100	GpH7-A5/GpH7-B3 variant L235_11K/GpL16-k0 (antibody, human IgG1, kappa, He Ab: alteration in one H chain only; also called He Ab) heavy 1: not shown heavy 2: not shown light: DIVMTQSPLSLPVTPGEPASISCQASESLVHSNRNTYLHWYLQKPGQSPQLLIYKVSNRFSGVPDRFSGSGSGTDFTLKISRVEAEDVGVYYCSQNTHVPPTFGQGTKVEIERTVAAPSVFIFPPSDEQLKSGTASVVCLLNNFYPREAKVQWKVDNALQSGNSQESVTEQDSKDSTYSLSSTLTLSKADYEKHKVYACEVTHQGLSSPVTKSFNRGEC
1.32 ratio	79.8 control=100	60.3 control=100	GpH7-A5/GpH7-B3 variant L234_19Q/GpL16-k0 (antibody, human IgG1, kappa, He Ab: alteration in one H chain only; also called He Ab) heavy 1: not shown heavy 2: not shown light: DIVMTQSPLSLPVTPGEPASISCQASESLVHSNRNTYLHWYLQKPGQSPQLLIYKVSNRFSGVPDRFSGSGSGTDFTLKISRVEAEDVGVYYCSQNTHVPPTFGQGTKVEIERTVAAPSVFIFPPSDEQLKSGTASVVCLLNNFYPREAKVQWKVDNALQSGNSQESVTEQDSKDSTYSLSSTLTLSKADYEKHKVYACEVTHQGLSSPVTKSFNRGEC
1.84 ratio	12.5 control=100	6.8 control=100	GpH7-A5/GpH7-B3 variant G236_12R/GpL16-k0 (antibody, human IgG1, kappa, He Ab: alteration in one H chain only; also called He Ab) heavy 1: not shown heavy 2: not shown light: DIVMTQSPLSLPVTPGEPASISCQASESLVHSNRNTYLHWYLQKPGQSPQLLIYKVSNRFSGVPDRFSGSGSGTDFTLKISRVEAEDVGVYYCSQNTHVPPTFGQGTKVEIERTVAAPSVFIFPPSDEQLKSGTASVVCLLNNFYPREAKVQWKVDNALQSGNSQESVTEQDSKDSTYSLSSTLTLSKADYEKHKVYACEVTHQGLSSPVTKSFNRGEC
1.95 ratio	36.9 control=100	18.9 control=100	GpH7-A5/GpH7-B3 variant L234_12R/GpL16-k0 (antibody, human IgG1, kappa, He Ab: alteration in one H chain only; also called He Ab) heavy 1: not shown heavy 2: not shown light: DIVMTQSPLSLPVTPGEPASISCQASESLVHSNRNTYLHWYLQKPGQSPQLLIYKVSNRFSGVPDRFSGSGSGTDFTLKISRVEAEDVGVYYCSQNTHVPPTFGQGTKVEIERTVAAPSVFIFPPSDEQLKSGTASVVCLLNNFYPREAKVQWKVDNALQSGNSQESVTEQDSKDSTYSLSSTLTLSKADYEKHKVYACEVTHQGLSSPVTKSFNRGEC
